Source: the supplement of paper PMC7125110
± gives the standard error. Fewer inactive variants are shown than the library holds.

B1: glmS ribozyme (parent)
chain: AUAAAAGCGCCAGAACUACAGAAAUGUAGUUGACGAGGAGGAGGUUUAUCGAAUUUUCGGCGGAUGCCUCCAAA

Experiments:
Conditions in all cases: with glucosamine-6-phosphate
[1] = variants of: B1; experiment: self-cleavage kobs at 40 uM GlcN6P; higher = faster cleavage; RNA array
Outline: (§1)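 A hybridised Cy3 probe tracked barcoded ribozyme variants, transcribed in situ by E. coli RNA polymerase on sequenced MiSeq chips, at 37 °C. The variants received 40 μM to 10 mM glucosamine-6-phosphate in HEPES/KCl/Mg(OAc)2 buffer. kobs came from decay fits and kcat and KM from weighted Michaelis–Menten fits.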

[2] = variants of: B1; experiment: self-cleavage kobs at 10000 uM GlcN6P; higher = faster cleavage; RNA array
Outline: as §1

[3] = variants of: B1; experiment: self-cleavage kobs at 160 uM GlcN6P; higher = faster cleavage; RNA array
Outline: as §1

[4] = variants of: B1; experiment: self-cleavage kobs at 640 uM GlcN6P; higher = faster cleavage; RNA array
Outline: as §1

[5] = variants of: B1; experiment: self-cleavage kobs at 2500 uM GlcN6P; higher = faster cleavage; RNA array
Outline: as §1

Row | Variant | self-cleavage kobs at 40 uM GlcN6P [1] [s⁻¹] | self-cleavage kobs at 10000 uM GlcN6P [2] [s⁻¹] | self-cleavage kobs at 160 uM GlcN6P [3] [s⁻¹] | self-cleavage kobs at 640 uM GlcN6P [4] [s⁻¹] | self-cleavage kobs at 2500 uM GlcN6P [5] [s⁻¹]
1 | A15C C61A | < 1e-05 | < 1e-05 |  |  | 
2 | G32A G35C C67G | < 1e-05 | < 1e-05 |  |  | 
3 | U31C C34G G37A A42U U47A A52U | < 1e-05 | < 1e-05 |  |  | 
4 | A14C C71U | 0.000147 ± 1.3e-05 | 0.00794 ± 0.00094 | 0.000353 ± 3.7e-05 | 0.000938 ± 9.2e-05 | 0.00483 ± 0.00086
5 | U30A U57G U65G | < 1e-05 |  |  |  | 
6 | G13C C34A | < 1e-05 | < 1e-05 |  | < 1e-05 | 
7 | C16A G37U G43U U57C | < 1e-05 | < 1e-05 |  | < 1e-05 | 
8 | A15U A33G G38C G40C C68U | < 1e-05 | < 1e-05 |  |  | 
9 | A14U G63U A64U | < 1e-05 |  |  |  | 
10 | G13C G32C U57G C70G | 7.16e-05 ± 2.4e-05 | 9.13e-05 ± 1.7e-05 |  |  | 
11 | C16G A48G C68U | < 1e-05 | < 1e-05 |  |  | 
12 | U30A U49A G62U | < 1e-05 |  |  |  | 
13 | G29C U30G U31A C50U | < 1e-05 |  |  | < 1e-05 | 
14 | C16U A39C C68A | < 1e-05 | < 1e-05 |  |  | 
15 | C16U U30A G37A G40U U65A | < 1e-05 | < 1e-05 |  |  | 
16 | A15C U47G G51A U56C | < 1e-05 | < 1e-05 |  |  | < 1e-05
17 | A15G G35C | < 1e-05 |  |  | < 1e-05 | < 1e-05
18 | G29U A48C G63U | < 1e-05 | < 1e-05 |  |  | 
19 | G29C G43U C67U | < 1e-05 | < 1e-05 |  |  | 
20 | C16A A42U | < 1e-05 |  | < 1e-05 |  | 
21 | A15C G32U A42U | < 1e-05 | < 1e-05 |  |  | 
22 | G13U A42C A53C C68A | < 1e-05 |  |  |  | 
23 | G29C A33G G38A G40C G43C | < 1e-05 |  |  |  | 
24 | A15C U49C | < 1e-05 | < 1e-05 | < 1e-05 | < 1e-05 | < 1e-05

Row | Variant | self-cleavage kobs at 40 uM GlcN6P [1] [s⁻¹] | self-cleavage kobs at 10000 uM GlcN6P [2] [s⁻¹] | self-cleavage kobs at 160 uM GlcN6P [3] [s⁻¹] | self-cleavage kobs at 640 uM GlcN6P [4] [s⁻¹] | self-cleavage kobs at 2500 uM GlcN6P [5] [s⁻¹]
25 | U30A A52C | < 1e-05 | < 1e-05 | < 1e-05 | < 1e-05 | < 1e-05
26 | U30G G66A | 0.000144 ± 3.9e-05 |  |  |  | 
27 | A14G C68U | 0.000235 ± 1.9e-05 | 0.0159 ± 0.0026 | 0.000503 ± 6.4e-05 | 0.00222 ± 0.00018 | 0.00412 ± 0.00051
28 | G29C C50G | 5.44e-05 ± 1.3e-05 | 2.54e-05 ± 1.1e-05 | 0.000194 ± 5.9e-05 | 0.000208 ± 4.9e-05 | 0.000178 ± 3.6e-05
29 | A15U A52C G59A C70A | < 1e-05 |  |  |  | 
30 | U30A G38C A52G U69A | < 1e-05 | < 1e-05 |  |  | < 1e-05
31 | U30C U49A G60C | < 1e-05 |  |  | < 1e-05 | 
32 | G29C C50G C61A U65C | 7.48e-05 ± 2.1e-05 |  |  |  | 
33 | U31C G44A | < 1e-05 |  | < 1e-05 |  | 
34 | G29C A42C | < 1e-05 | < 1e-05 |  | < 1e-05 | < 1e-05
35 | G13C G51A | < 1e-05 | < 1e-05 |  |  | < 1e-05
36 | C16A G35C | < 1e-05 | < 1e-05 | < 1e-05 | < 1e-05 | < 1e-05
37 | A14G A15U G37A | 4.55e-05 ± 1.5e-05 | 0.00249 ± 0.00037 |  |  | 
38 | A14U G43U G51U | < 1e-05 |  |  |  | < 1e-05
39 | A15G G29U U56G G63A | < 1e-05 |  |  |  | 
40 | U30C G59C | < 1e-05 | < 1e-05 |  | < 1e-05 | < 1e-05
41 | C16G A48C | < 1e-05 | 4.28e-05 ± 1.7e-05 | < 1e-05 | < 1e-05 | 
42 | G13U G32U A36G G38C U54G | < 1e-05 |  |  |  | 
43 | C16A G44C C50A | < 1e-05 | < 1e-05 |  |  | 
44 | G29A G43A | < 1e-05 |  | < 1e-05 | < 1e-05 | < 1e-05
45 | A14G U55G | 0.00161 ± 0.00014 | 0.0589 ± 0.011 | 0.00404 ± 0.00073 | 0.00984 ± 0.0012 | 0.00953 ± 0.0023
46 | G29C U45A | 7.41e-05 ± 2.6e-05 | 0.00281 ± 0.00086 |  | 0.000828 ± 0.00023 | 0.000499 ± 0.00024
47 | A14G U47G C58G C71U | 4.07e-05 ± 2e-05 | 9.43e-05 ± 1.6e-05 |  |  | 
48 | A14C G35U | < 1e-05 | < 1e-05 | < 1e-05 |  | < 1e-05
